Values quoted from earlier work, collected in article PMC7289715.

Molecular target: Spike protein (SARS-CoV-2) (UniProt P0DTC2)

## CD147 (from UniProt P35613)
  Kd: 185 nM
